Data reported in patent publication US20180154038A1.
Where no end group is shown, it is not given here.

Biological target: human fibrinogen (human) (UniProt P02671)
Experiment: cell-based or functional assay

Chain of human fibrinogen (human) (P02671 20-629 limits assumed, chain 1 of 3): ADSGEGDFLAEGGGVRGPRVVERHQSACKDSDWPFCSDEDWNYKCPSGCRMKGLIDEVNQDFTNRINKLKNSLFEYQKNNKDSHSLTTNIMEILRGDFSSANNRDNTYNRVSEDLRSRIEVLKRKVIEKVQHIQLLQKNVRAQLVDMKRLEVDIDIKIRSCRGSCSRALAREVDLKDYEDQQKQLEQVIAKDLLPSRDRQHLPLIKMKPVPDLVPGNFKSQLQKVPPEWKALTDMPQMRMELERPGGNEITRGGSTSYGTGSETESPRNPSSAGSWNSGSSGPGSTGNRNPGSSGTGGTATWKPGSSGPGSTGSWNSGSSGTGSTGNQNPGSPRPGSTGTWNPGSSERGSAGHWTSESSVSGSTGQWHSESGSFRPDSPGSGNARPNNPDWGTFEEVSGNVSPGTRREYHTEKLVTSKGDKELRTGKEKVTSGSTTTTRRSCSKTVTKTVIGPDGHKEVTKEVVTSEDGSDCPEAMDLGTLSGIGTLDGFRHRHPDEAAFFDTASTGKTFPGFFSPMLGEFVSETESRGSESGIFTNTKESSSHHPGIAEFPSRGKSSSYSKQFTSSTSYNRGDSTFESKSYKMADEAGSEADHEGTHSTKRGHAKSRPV
Chain of human fibrinogen (human) (P02675 31-491 limits assumed, chain 2 of 3, further chain): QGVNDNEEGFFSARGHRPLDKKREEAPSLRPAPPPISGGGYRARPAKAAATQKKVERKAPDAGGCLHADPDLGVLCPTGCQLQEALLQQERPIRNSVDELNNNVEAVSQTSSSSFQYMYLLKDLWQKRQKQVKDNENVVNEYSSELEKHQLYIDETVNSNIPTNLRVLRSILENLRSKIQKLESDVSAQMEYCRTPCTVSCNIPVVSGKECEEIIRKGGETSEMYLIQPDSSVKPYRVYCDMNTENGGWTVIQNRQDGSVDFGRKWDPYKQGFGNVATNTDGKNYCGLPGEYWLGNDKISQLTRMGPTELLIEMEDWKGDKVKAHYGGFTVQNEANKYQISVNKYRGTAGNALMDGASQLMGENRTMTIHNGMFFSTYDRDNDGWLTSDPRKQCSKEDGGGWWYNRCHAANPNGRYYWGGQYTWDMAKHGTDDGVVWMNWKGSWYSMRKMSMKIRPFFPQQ
Chain of human fibrinogen (human) (P02679 other isoform, or with tags, fused parts or gaps limits assumed, chain 3 of 3, further chain): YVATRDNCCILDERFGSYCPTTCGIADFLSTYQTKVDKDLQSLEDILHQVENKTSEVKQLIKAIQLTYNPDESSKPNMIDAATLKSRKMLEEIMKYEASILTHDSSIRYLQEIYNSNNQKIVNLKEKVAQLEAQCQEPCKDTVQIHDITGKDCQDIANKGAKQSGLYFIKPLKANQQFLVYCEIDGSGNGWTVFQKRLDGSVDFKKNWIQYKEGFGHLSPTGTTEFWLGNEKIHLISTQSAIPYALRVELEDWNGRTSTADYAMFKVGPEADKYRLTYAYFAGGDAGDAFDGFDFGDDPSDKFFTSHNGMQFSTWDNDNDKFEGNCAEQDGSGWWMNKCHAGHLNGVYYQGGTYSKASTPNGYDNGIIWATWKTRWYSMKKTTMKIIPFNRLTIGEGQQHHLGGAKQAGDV

Clotting activity (seconds) in human fibrinogen @ c = 3 mg/ml; HXP12 extracted from HA paste, 0.06 mg/ml; after sterilization, accelerated aging @ 40 C, 2 weeks: 3.6 s | Clotting activity (seconds) in human fibrinogen @ c = 3 mg/ml; HXP12 extracted from HA paste, 0.06 mg/ml; after sterilization, accelerated aging @ 40 C, 4 weeks: 5.4 s | Clotting activity (seconds) in human fibrinogen @ c = 3 mg/ml; HXP12 extracted from HA paste, 0.06 mg/ml; autoclaved @ 121 C: 3.3 s | Clotting activity (seconds) in human fibrinogen @ c = 3 mg/ml; HXP12 extracted from HA paste, 0.06 mg/ml; non autoclaved: 1 s | Clotting activity (seconds) in human fibrinogen; HXP12 0.05 mg/ml in saline; after sterilization, storage @ 40 C, 4 wks: 0.9 s | Clotting activity (seconds) in human fibrinogen; HXP12 0.05 mg/ml in saline; after sterilization, storage @ 40 C, 7 wks: 1.2 s | Clotting activity (seconds) in human fibrinogen; HXP12 0.05 mg/ml in saline; after sterilization, storage @ 40 C, 13 wks: 1.1 s | Clotting activity (seconds) in human fibrinogen; HXP12 0.05 mg/ml in saline; after sterilization, storage @ 40 C, 27 wks: 1.1 s | Clotting activity (seconds) in human fibrinogen; HXP12 0.05 mg/ml in saline; autoclaved @ 121 C: 1 s | Clotting activity (seconds) in human fibrinogen; HXP12 0.05 mg/ml in saline; non autoclaved: 1.1 s | Clotting activity (seconds) in human plasma; HXP12 extracted from HA paste, 0.1 mg/ml; after sterilization, accelerated aging @ 80 C, 4 hours: 2.8 s | Clotting activity (seconds) in human plasma; HXP12 extracted from HA paste, 0.1 mg/ml; after sterilization, accelerated aging @ 80 C, 16 hours: 4.8 s | Clotting activity (seconds) in human plasma; HXP12 extracted from HA paste, 0.1 mg/ml; autoclaved @ 121 C: 2.6 s | Clotting activity (seconds) in human plasma; HXP12 extracted from HA paste, 0.1 mg/ml; non autoclaved: 2 s | clotting time in human plasma, dendrimer 0.25 mg/ml, 37 C: < 1 s
B1: Peptide Dendrimer No. 12 (peptide, from a related filing, part only)
peptide: GPRPG
chain: KKKKK
modifications: not fully specified; also: five-arm peptide dendrimer, arms attached by C-terminus to branched core
